What is called Kd is the concentration at which binding is half-saturated.

Assay [1] concerns the target hIL2Rα. In words: literature reference; Charych, PLOS ONE 2017.
Assay [2] deals with hIL2Rβ. In words: literature reference; Charych, PLOS ONE 2017.
Assay [3] deals with hIL2Rα. In words: literature reference; Stauber, PNAS 2006.
The target of assay [4] is hIL2Rβ. In words: literature reference; Stauber, PNAS 2006.

As to NKTR-214 (1-PEG-IL2), the results for the Kd with hIL2Rα [1] and in the assay with hIL2Rβ [2] were 190 nM and 1770 nM, respectively.
For NKTR-214 (2-PEG-IL2) the same measures were 487 nM and 3950 nM.
With NKTR-214 (IL2), the results for the Kd with hIL2Rα [1] and with hIL2Rβ [2] were 8.6 nM and 239 nM, respectively.
On to hIL2w, for which the dissociation constant (Kd) in the assay with hIL2Rα [3] is 10 nM; with hIL2Rβ [4] it was 144 nM.
